Reference: patent US20250164487, “METHOD FOR […] ANALYTE USING POLYNUCLEOTIDE” (NATIONAL UNIVERSITY CORPORATION TOKYO UNIVERSITY OF …, published 2025)

Legend:
[1] = target: T1, SARS-CoV-2 spike protein receptor-binding domain (RBD) (SARS-CoV-2, UniProt P0DTC2 P0DTC2:319-541)
[2] = target: T1, SARS-CoV-2 spike protein …; assay: […]; PBS pH 7.4, room temperature
BSA = BSA (UniProt P02769 P02769:25-607)
BSA, sequence (P02769 25-607, one chain of several): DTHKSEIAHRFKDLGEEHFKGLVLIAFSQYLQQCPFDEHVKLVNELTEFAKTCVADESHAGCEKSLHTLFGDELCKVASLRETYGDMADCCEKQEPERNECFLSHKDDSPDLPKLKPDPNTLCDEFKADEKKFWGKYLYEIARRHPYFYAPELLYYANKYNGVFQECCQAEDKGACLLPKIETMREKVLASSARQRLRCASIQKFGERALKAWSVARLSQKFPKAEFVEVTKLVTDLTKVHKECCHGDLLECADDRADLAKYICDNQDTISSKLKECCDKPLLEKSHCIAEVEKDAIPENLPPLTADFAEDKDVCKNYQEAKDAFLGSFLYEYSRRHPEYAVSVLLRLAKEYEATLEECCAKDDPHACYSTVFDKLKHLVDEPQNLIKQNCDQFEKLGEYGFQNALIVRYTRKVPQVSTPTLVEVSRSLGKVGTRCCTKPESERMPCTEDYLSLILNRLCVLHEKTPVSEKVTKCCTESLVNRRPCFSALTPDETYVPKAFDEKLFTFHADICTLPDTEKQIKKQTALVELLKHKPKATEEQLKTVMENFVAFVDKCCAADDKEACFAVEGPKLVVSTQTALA

B1: RBD-45 (ssDNA)
DNA: AGGGGCTGCTCGGGATTGCGGATATGGA
binding result [1]: binds

B2: RBD-46 (ssDNA)
DNA: GGGGCTGCTCGGGATTGCGGATATGG
Kd [2]: 34.7 nM
binding result (BSA): no binding
